Experiment: yeast display, Sf9 membrane polyspecificity reagent, FACS + sequencing; frameworks hold sequencing errors
In short: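 Sorting gates, low and high (top ~1%), were placed on anti-HA fluorescence to track expression and on streptavidin fluorescence to track reagent binding. A clone's polyreactivity label is taken from the gate it came out of. The reagent was 10% biotinylated, detergent-solubilized Sf9 membrane, applied for 1 hour at 4 °C to galactose-induced yeast display cells.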

Row | Sequence | polyreactivity (PSR sort gate)
1 | QVQLVESGGGLVQAGGSLSLSFAASGSTFERYAMGWSRQAPGKERELVAAIRASGVRTYYADSVKGRFTISRDNAKNTVNLQMNSLKPEDTAVYYCAAELQRYWGRLYYYWGQGTQVSVSS | high polyreactivity
2 | QVQLVESGGGLVQAGGSLSLSSAATGSNFGRNAMGWYRQATGKEREFVAAISQRGGRTYYSDSVKGRFTISRDNAKNTVYLQMNSLKPEETAVYYCAATYTRVPNRFYYWGQGTQVTVSS | high polyreactivity
3 | QVQLVESGGGLVQAGGSPRLSCAASGRTFAEYPMGWYRQAPGKERELVAGISWSGGSTYYADSVKGRFTISRDTAKNTVYLQMNSMKPDDTAVYYCAARGWKRGYYIGHYYYWGQGTQVTVSS | low polyreactivity
4 | QVQLVESGGGLVQAGGSPRLSCAASGRTFVFKAMGWYRQAPAKERELVAAITDTTGSTYYADSVKGRFTISRDNAKNTVYLQMNSLKPEDTAVYYCNARVYRPFYYWGQGTQVTVSS | low polyreactivity
5 | QVQLVESGGGLVQAGGSQRLSCAASGRIFRYYAMGWYRQAPGKERELVAAITWSGGSTYYADSVKGRFTISRDNEKNTVYLQMNSLKPDDTAVYYCTAISYQPFHGDYWGQGTQVTVSS | low polyreactivity
6 | QVQLVESGGGLVQAGGSRRIICAASGSIFGYYAMGWYRQAPGKEREFVAAISGRGSSTYYADSVKGRFTISRDNAQNTVYLQMNSLKPEDTAVYYCARVTYKHYGYWGQGTQVTVSS | high polyreactivity
7 | QVQLVESGGGLVQAGGSRRISCAASGIIFTLYVMGWYRQAPGTERELVAAIRSGGSTYYADSVKGRVTISRDNAKNTVYLQMNSLKPEDTAVYYCAARVRSGTGVGFDYWGQGTQVTVSS | high polyreactivity
8 | QVQLVESGGGLVQAGGSRRLICAASGSIFGWYAMGWYRPAHGKERELVAAISQSGGRTYYADSVKGRFTISRDNAKNTVYLQMNSLKPEDTAVYYCAAYYTSYWGYDYDYWGQGTQVTVSS | low polyreactivity
9 | QVQLVESGGGLVQAGGSRRLSCAASGLIFVRYAMGWYRQAPGKERELVATISSRGASTYYADSVKGRFTISRDNAKNTVYFQMNSLKPEDTAVYYCNAGRLRRSYKPYDYWGQGTQVTVSS | high polyreactivity
10 | QVQLVESGGGLVQAGGSRRLSCAASGLIMDYYAMGWYRQAPGKERELVAAISSGGTDTYYADSVKGRFTITRDNAKNTVYLQMNSLKPEDTAVYYCAADSYWSAYDYWGQGTQVTVSS | low polyreactivity
11 | QVQLVESGGGLVQAGGSRRLSCAASGSTFYGYAMGWYRQAPGKEREFVAAITTSGGSTYYADSVKGRFTISRDNAKNTVYLQMNSLKPEDTAVYYCAADGFYYDDGYWGQGTQVTVSS | low polyreactivity
12 | QVQLVESGGGLVQAGGSRRVSCAASGCIFGYNDMGWSRQAPGKDRELDASITWGGGRTRYADSVKGRFTISRDNAKNTVDLHMNSLKPEDTAVYYGAADKRSYSYVRPPRNQEDYWGQGTQVTVSS | low polyreactivity
13 | QVQLVESGGGLVQAGGSRSLSCAASGSILWYYAMGWYRQAPGKERELVADITARGVGTYYADSVKGRFTISRDNAKNTVYLQMNSLKPEDTAVYYCNVETYSFYTLYVTYDYWGQGTQVTVSS | low polyreactivity
14 | QVQLVESGGGLVQAGGSVRLSCAASGFIFTDNAMGWYRQPPLKERELVAAINLSGTRTYYADSVKGRFTISLDNAKNTVSLQMNSLKPEDTAVYYCNISEDYSYEYWGQGTQVTVSS | low polyreactivity
15 | QVQLVESGGGLVQAGGSVRLSCAASGFIFYDYVMGWYRQAPGKERELVAAISASGGSTYYADSVKGRFTISRDYAKNTVYLQMNSLKPEDTAVYYCAAPRYYYYWRDYWGQGTQVTVSS | high polyreactivity
16 | QVQLVESGGGLVQAGGSVRLSCAASGLIFTIYAMGWYRQAPGKERELVAVITWSGGSTYYADSVKGRFTISRDNAKNTVYLQMYSLKPEDTAVYYCAVEWAYPYWYTYYLEDYWGQGTQVTVSS | low polyreactivity
17 | QVQLVESGGGLVQAGGSVRLSCAASGRIFSRKAMRWYIQAPGKERELVAAISRSGTSTYYADSVKGRFTISRDNAKNTVYLQMNSLKPEDNAVYYCAADYPAVISIRRYDYWGQGTQVTVSS | low polyreactivity
18 | QVQLVESGGGLVQAGGTLLLSGAASGSIFGYNAMGWYRQAPGKERELVAAIRSSDSRTHYADSVKGRFRISRDNAKNTVYLQMNSLKPEDTAVYYCAAVKRRPGHYLYDYWGQGTQVTVSS | low polyreactivity
19 | QVQLVESGGGLVQAGGTLRISCAASGRTFRKYAMGWYRQAPGKERELVAAISWSGGSTYYANSVKGRFTISRDNAKNTVYLQMNSLKPEDTAVYYCAAVPVHTGSLYWGFTTGYDYWGQGTQVTVSS | low polyreactivity
20 | QVQLVESGGGLVQAGGTLRLSCAACGFTFSSYAMGWYRQAPGKERELVAAITYRGGSTYYADSVKGRFTISRDNAMNNVYLQMNSLKPEDTAVYYCAARWGYRMYWGQGTQVTVSS | high polyreactivity
21 | QVQLVESGGGLVQAGGTLRLSCAACGSTYYRNAMGWYRPAPGKERELVATITRSGGSTYYADSVKGRFTISRDNAKNTVYLQMNSLKPEDTAVYYCAARGWYKSDYWGQGTQVTVSS | low polyreactivity
22 | QVQLVESGGGLVQAGGTLRLSCAASGFIIPGYAMGCYRQAPGKERELVAAISGRGGSTYYADSVKGRFTISRDNAKNTVYLQMNSLKPEDTAVYYCNADWQDDLAGYDVDYWGQGTQVTVSS | low polyreactivity

Row | Sequence | polyreactivity (PSR sort gate)
23 | QVQLVESGGGLVQAGGTLRLSCAASGFTFFSNAMGWYRQPPGKERELVAAIPTNGGSTYYADSVKGRFTISRDNAMNTVYLQMNSLKPEDTALYYCAAEYTVGGPYSYDFWGQGTQVTVSS | low polyreactivity
24 | QVQLVESGGGLVQAGGTLRLSCAASGIIFYSNAMGWYRQAPGKEWELVAGISKSGGSTYYADSVKGRFTISRDNAKNNVYLHMNSLKPEDTAVYYCAVRGGGRYRSWGYDYWGQGTQVTVSS | high polyreactivity
25 | QVQLVESGGGLVQAGGTLRLSCAASGIIIGSYAMGWYRQAPGKERELVAAITNGARTNYADSVKGRFTISRDNAKNTVYLQMNSLKPEDTAVYYCAADNYFDWYWLFFEYDYWGQGTQVTVSS | high polyreactivity
26 | QVQLVESGGGLVQAGGTLRLSCAASGRIFDGNTMGWDRQAPGKERELVAAIRSRGDRTYYADSVKGRFTISRDNAKNTVYLQMNSLKPEDTAVYYCAAQPSWYKPKGSWFEKGLYDYWGQGTQVTVSS | low polyreactivity
27 | QVQLVESGGGLVQAGGTLRLSCAASGRIFSGYVMGWYRPAPGKERELVAVISRSGGSTYYADSVKGRFTISRDNAKNTVYLQMNSLKPEDTAVDYCAAKHIDGSRGYDYWGQGTQVTVSS | low polyreactivity
28 | QVQLVESGGGLVQAGGTLRLSCAASGRIFSKNAMGWYRQAPGKERELVAAMSSSGTSTYYADSVKGRFTISRDNAKNTVYLQINSLKPEDTAVYYCAARVSLTTYSYYSWGQGTQLTVSS | high polyreactivity
29 | QVQLVESGGGLVQAGGTLRLSCAASGRIFWAYAMGRYRQAPGKERELVAAITRSGGYTRYADSVKGRFTISRDNAKNTVYLLMNSLKPEDTAVYYCNAYAPRQLYGYDYWGQGSQVTVSS | high polyreactivity
30 | QVQLVESGGGLVQAGGTLRLSCAASGRTFNYAMGWYRQAPGKERELVATITSGGSTNYADSVKGRFTISRDNAKNTVYLQLNSLKPEDTAVYYCNRDIPPGNYYKALYYYWGQGTQVTVSS | low polyreactivity
31 | QVQLVESGGGLVQAGGTLRLSCAASGRTFYYYTMGWYRQAPGKERDLVAAISSTGNTYYADSVKGRFTISRDNAKNSVYLQMNSLNPADTALYYCAASGGSSDAYWGQGTQVTVSS | high polyreactivity
32 | QVQLVESGGGLVQAGGTLRLSCAASGSIFARYAMGCSIQAPGKERELVAAISGSGASTYYADSVKGRFTISRDNAKNTVYLQMNSLKPEDTAVYYCARPFLRRPTYRFETGYGYWGQGTQVTVSS | high polyreactivity
33 | QVQLVESGGGLVQAGGTLRLSCAASGSIFPYYVMGWYRQAPGKERELVAAISTSDGSTYADSVKGRFTISRDNAKNTVYFQMNSLKPEDTAVYYCAVANVYYEGYDYWGQGTQVTVSS | low polyreactivity
34 | QVQLVESGGGLVQAGGTLRLSCAASGSTFAVNAMGWYRQPPGKERELVAAISRSGGSTYYADSVKGRFTISRDNAKNTDYLQMKSLKPEDTAFYYCNTRTPYWFKSDYWGQGTQVTVSS | low polyreactivity
35 | QVQLVESGGGLVQAGGTLRLSCAASGSTFRGYAMGWYRQAPGKERELVAAIRRAGSTNYAESVKGRFTISRDNAKNTVYLQMNSLKPEDTAVYYFADSKCLWYGASVSQKKAGMDSWGQGTQVTVSS | low polyreactivity
36 | QVQLVESGGGLVQAGGTLRLSCAASGSTFRYYAMGWYRQAPGKERELVATITSDGSTNYADSVKGRFTFSRDNAKNTVYLQLNSLKPEDTAVYYCNARCRRYKSSNSWGQGTQVTVSS | high polyreactivity
37 | QVQLVESGGGLVQAGGTLRLSCAASGSTFVGYAMGWYRQAPGKERELVAAISSSGSTNYADSVKGRFTISRDNAKNTVYLQMNSLKPEDTAVYYCAALYSYFWLIIDYGYWGQGTQVTVSS | low polyreactivity
38 | QVQLVESGGGLVQAGGTLRLSCAASGSTLYPYDMGWYRQAPGKERELVAAIDSGGSTNYADSVKGRFTISRDNAKNTVYLQMNRLKPEDTAVYYCAADASGENDYWGQGTQVTVSS | low polyreactivity
39 | QVQLVESGGGLVQAGGTLRLSCAASGYTSSLNAMRWYRQAPGKERELVARITTDGTSTYYADSVKGRFTISRDNAKNTVYLQMNSLKPEDTAVYYCNARYPAYGVRSWYPYAYYYWGQGTQVTVSS | low polyreactivity
40 | QVQLVESGGGLVQAGGTLRLSCADSGSTFTYNAMGWYRQAPGKERELVASISSGTTTYYADSVKGRFTISRDNAKNTVYLQMNSLKPEDTAVYYCAVDSWSRVQGWLAHNYDYWGQGTQVTVSS | low polyreactivity
41 | QVQLVESGGGLVQAGGTLRLSCAPSGRTFKRYAMGWYRQAPGKERELVAAISSGGSTYADSVKGRFTISRDNAKNTVYLHMNSLKTEDTAVYYCAARYRSYPERYNYWGQGTQGTVSS | high polyreactivity
42 | QVQLVESGGGLVQAGGTLRLSCAPSGSTFVPNAMGWYRQAPGKERELVATITSSSSRTYYADSVKGRFTISRDNAKNTVYLQMNSLKPEDTAVYYCAADGRRVVARYDYWGQGTQVTVSS | high polyreactivity
43 | QVQLVESGGGLVQAGGTLRLSCDASGSIFFWKAMGWYRQAPGKERELVAAISYTDGSTYYADSVKGRFTIPRDNAKNTVYLLMNSLKPEDTAVYYCAAAITPSYNGSEYDYWGQGTQVTVSS | low polyreactivity

From the nanobody polyreactivity screen of Harvey et al. (2022)
